Data on one molecule can be found in article PMC9989923, “A curcumin analogue GO‐Y030 depletes cancer stem cells by inhibiting the interaction between the HSP70/HSP40 complex and its substrates” (FEBS Open Bio, 2023).

Assay [1] deals with T1, recombinant human HSP70‐1A protein (human, UniProt P0DMV8 1-641).
T1 construct: recombinant human HSP70-1A (gene HSPA1A), bought from StressMarq Biosciences; No catalogue number printed; source: bought: StressMarq Biosciences
As to the kind of experiment: ELISA; substrate-binding assay: CMLA immobilised at 500 ng per well; 50 ng per well HSP70-1A or dnaJ-B1 in 20 mM Tris-HCl pH 7.5, 20 mM NaCl, 10 mM MgCl2, 0.2% BSA, 60 min at 30 °C; detected with anti-HSP70 or anti-DNAJB1 pAb and alkaline phosphatase-labelled secondary antibody; with dimethylsulfoxide, GO-Y030 or PFT-μ. To be noted: both partners purified.

The target in assay [2] is T2, recombinant human HSP40/Hdj1 (dnaJ‐B1) protein (human, UniProt P25685 1-340).
T2 construct: recombinant human HSP40/Hdj1 (dnaJ-B1, gene DNAJB1), bought from Enzo Life Sciences; No catalogue number printed; source: bought: Enzo Life Sciences
The assay is described as above. To be noted: both partners purified.

T2 sequence (P25685 whole entry): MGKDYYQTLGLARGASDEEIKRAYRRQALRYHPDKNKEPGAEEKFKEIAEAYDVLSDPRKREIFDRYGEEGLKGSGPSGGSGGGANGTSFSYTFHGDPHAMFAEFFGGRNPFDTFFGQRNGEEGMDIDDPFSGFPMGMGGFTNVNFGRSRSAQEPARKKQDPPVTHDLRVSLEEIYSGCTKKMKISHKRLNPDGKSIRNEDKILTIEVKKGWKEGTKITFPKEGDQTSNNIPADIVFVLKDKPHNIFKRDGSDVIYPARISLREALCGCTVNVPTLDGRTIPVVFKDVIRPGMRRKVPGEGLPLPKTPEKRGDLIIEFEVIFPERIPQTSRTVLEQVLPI
T1 sequence (P0DMV8 whole entry): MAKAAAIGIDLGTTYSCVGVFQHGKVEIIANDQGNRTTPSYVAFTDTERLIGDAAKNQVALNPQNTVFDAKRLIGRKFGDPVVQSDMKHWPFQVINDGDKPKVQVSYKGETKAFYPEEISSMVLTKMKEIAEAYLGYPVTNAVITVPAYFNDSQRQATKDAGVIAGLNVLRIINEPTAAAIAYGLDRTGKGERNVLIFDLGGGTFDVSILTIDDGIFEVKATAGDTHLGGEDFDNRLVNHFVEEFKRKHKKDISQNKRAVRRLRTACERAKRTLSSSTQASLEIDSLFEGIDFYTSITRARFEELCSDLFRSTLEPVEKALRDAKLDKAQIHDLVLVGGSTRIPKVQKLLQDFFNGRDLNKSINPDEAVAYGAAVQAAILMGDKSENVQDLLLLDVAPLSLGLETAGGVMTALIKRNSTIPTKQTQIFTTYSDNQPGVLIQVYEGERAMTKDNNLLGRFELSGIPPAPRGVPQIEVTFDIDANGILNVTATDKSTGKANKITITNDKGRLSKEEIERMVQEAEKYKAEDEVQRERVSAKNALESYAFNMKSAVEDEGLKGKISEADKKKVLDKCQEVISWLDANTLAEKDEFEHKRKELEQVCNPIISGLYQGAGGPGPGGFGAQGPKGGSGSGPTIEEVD

B1: carboxymethylated α‐lactalbumin (natural protein, bovine, UniProt P00711 20-142, looked up)
chain: EQLTKCEVFRELKDLKGYGGVSLPEWVCTTFHTSGYDTQAIVQNNDSTEYGLFQINNKIWCKDDQNPHSSNICNISCDKFLDDDLTDDIMCVKKILDKVGINYWLAHKALCSEKLDQWLCEKL
modifications: reduced with 20 mM dithiothreitol in 8 M urea and alkylated with 40 mM iodoacetamide (called carboxymethylated); permanently unfolded
notes: also called CMLA; carboxymethylated lactalbumin; source: bovine α-lactalbumin bought: Sigma-Aldrich; reduced in 8 M urea with dithiothreitol, alkylated with iodoacetamide, dialysed against PBS
As for B1, the binding result in assay [1] and in assay [2] was “binds” in each case.
